Source: patent US12679870 (US Dept. of Health and Human Services, dated 2026)

Molecular target: T1, HMPV F v3BΔ12 (V84C/A249C, A140C/A147C, substitution of HMPV F positions 89-112 to GSGGSG) (human metapneumovirus, B2 strain …)
T1 construct: That entry starts at K20, has no tags, and differs from the v3-B backbone at positions 185 and 323; also called HMPV F v3B with the L0.1 F1/F2 linker
T1 chain: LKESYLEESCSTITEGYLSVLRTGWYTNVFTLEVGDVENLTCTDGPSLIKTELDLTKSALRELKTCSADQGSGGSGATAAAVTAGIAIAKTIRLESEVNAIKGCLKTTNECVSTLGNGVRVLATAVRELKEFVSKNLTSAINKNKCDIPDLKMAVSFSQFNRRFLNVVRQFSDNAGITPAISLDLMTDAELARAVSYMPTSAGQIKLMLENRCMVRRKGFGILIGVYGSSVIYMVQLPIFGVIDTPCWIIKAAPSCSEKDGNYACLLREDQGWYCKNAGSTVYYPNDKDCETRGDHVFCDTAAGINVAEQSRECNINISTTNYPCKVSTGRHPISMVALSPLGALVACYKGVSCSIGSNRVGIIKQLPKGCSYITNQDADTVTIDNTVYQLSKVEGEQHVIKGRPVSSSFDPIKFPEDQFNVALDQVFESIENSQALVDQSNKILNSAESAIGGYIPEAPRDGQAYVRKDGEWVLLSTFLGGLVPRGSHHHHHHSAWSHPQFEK
Assay: antigenic assessment of F1/F2 linker variants, FIG. 13

B1: MPE8 antibody (Fab, V domains shown)
VH: EVQLVESGGGLVKPGGSLRLSCAASGFTFSSYSMNWVRQAPGKGLEWVSSISASSSYSDYADSAKGRFTISRDNAKTSLFLQMNSLRAEDTAIYFCARARATGYSSITPYFDIWGQGTLVTVSS
VL: QSVVTQPPSVSGAPGQRVTISCTGSSSNIGAGYDVHWYQQLPGTAPKLLIYDNNNRPSGVPDRFSASKSGTSASLAITGLQAEDEADYYCQSYDRSLSGVFGTGTKVTVL
notes: The text calls it an antibody; also called prefusion specific antibody MPE8
- fold increase in binding compared to v1B: > 10 fold
